In the supplement of paper PMC10724198 one finds protein stability index data, which are given here for 10 sequences.

± gives the standard deviation of the averaged measurements.

In series [1] the test system is Saccharomyces cerevisiae. Put plainly: protein stability index of tFT-peptide fusion (C-terminal peptide) (PSI (0-1 scale)); higher = more stable (slower turnover). How it is done: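 MPS profiling in S. cerevisiae of the tFT-X12 degron library: putative degron peptides plus stable controls, 12 aa, fused to the C-terminus of a sfGFP-mCherry timer. Cells are FACS-sorted into 8 mCherry/sfGFP bins and deep-sequenced. PSI runs from 0 (unstable) to 1 (stable). Backgrounds are wild type, das1Δ and doa10Δ at 30 °C, and wild type, das1Δ, cdc34-1 and cdc53-1 at 37 °C; 2-3 technical replicates each.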

Series [2] relates to Saccharomyces cerevisiae. Described as above. Particulars: genetic background: wild type; temperature: 30 C.
[3] abbreviates: genetic background: cdc34-1, temperature: 37 C.
Where [4] appears, read: genetic background: cdc53-1, temperature: 37 C.
Where [5] appears, read: genetic background: das1 deletion, temperature: 30 C.
Where [6] appears, read: genetic background: das1 deletion, temperature: 37 C.
Where [7] appears, read: genetic background: doa10 deletion, temperature: 30 C.
Setting [8] is: genetic background: wild type, temperature: 30 C.
Where [9] appears, read: genetic background: wild type, temperature: 37 C.
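Note: PSI is a weighted mean of sequencing reads over stability bins, variants kept only with over 10 reads, mCherry proximal and sfGFP distal, peptide attached via GGGS linker.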

For the sequence VFFFNALFCFFC, the protein stability index is 0.523 ± 0.039 in the series with Saccharomyces cerevisiae [1] (setting [3]); 0.51 ± 0.0085 with Saccharomyces cerevisiae [1] (setting [4]); 0.535 ± 0.02 with Saccharomyces cerevisiae [1] (setting [5]); 0.562 ± 0.0091 in the series on Saccharomyces cerevisiae [1] (setting [6]); 0.31138 ± 0.00022 in the series with Saccharomyces cerevisiae [1] (setting [7]); 0.291 ± 0.011 with Saccharomyces cerevisiae [1] (setting [8]). The protein stability index with Saccharomyces cerevisiae [1] (setting [9]) turned out to be 0.356 ± 0.0075; in the series on Saccharomyces cerevisiae [2] it was 0.35 ± 0.0075.

Take VFFSLSLILFPF: the protein stability index in the series on Saccharomyces cerevisiae [1] (setting [3]) was determined as 0.431 ± 0.037; with Saccharomyces cerevisiae [1] (setting [4]) it was 0.5265 ± 0.0017; in the series on Saccharomyces cerevisiae [1] (setting [5]), 0.412 ± 0.022; in the series with Saccharomyces cerevisiae [1] (setting [6]), 0.525 ± 0.024; in the series with Saccharomyces cerevisiae [1] (setting [7]), 0.3557 ± 0.00081; with Saccharomyces cerevisiae [1] (setting [8]) it was 0.402 ± 0.019. In addition, the protein stability index turned out to be 0.4897 ± 0.0017 in the series on Saccharomyces cerevisiae [1] (setting [9]) and 0.419 ± 0.013 in the series on Saccharomyces cerevisiae [2].

As to VFFVLAVVGADA, the protein stability index stood at 0.383 ± 0.044 with Saccharomyces cerevisiae [1] (setting [3]); 0.461 ± 0.024 in the series on Saccharomyces cerevisiae [1] (setting [4]); 0.331 ± 0.033 with Saccharomyces cerevisiae [1] (setting [5]); 0.551 ± 0.018 in the series with Saccharomyces cerevisiae [1] (setting [6]); 0.268 ± 0.0086 with Saccharomyces cerevisiae [1] (setting [7]); 0.306 ± 0.02 with Saccharomyces cerevisiae [1] (setting [8]). Moreover, the protein stability index amounted to 0.467 ± 0.053 in the series on Saccharomyces cerevisiae [1] (setting [9]) and 0.397 ± 0.045 in the series on Saccharomyces cerevisiae [2].

As to VFLFSLLIVFFP, the protein stability index stood at 0.213 ± 0.0089 in the series on Saccharomyces cerevisiae [1] (setting [3]); 0.3 ± 0.0087 in the series on Saccharomyces cerevisiae [1] (setting [4]); 0.226 ± 0.029 in the series with Saccharomyces cerevisiae [1] (setting [5]); 0.385 ± 0.00051 with Saccharomyces cerevisiae [1] (setting [6]); 0.1951 ± 0.0019 in the series on Saccharomyces cerevisiae [1] (setting [7]); 0.216 ± 0.028 in the series with Saccharomyces cerevisiae [1] (setting [8]). Besides, the protein stability index was found to be 0.3338 ± 0.0025 in the series with Saccharomyces cerevisiae [1] (setting [9]) and 0.219 ± 0.075 with Saccharomyces cerevisiae [2].

Take VFLLLSLSVFFE: the protein stability index was found to be 0.0371 ± 0.0054 in the series on Saccharomyces cerevisiae [1] (setting [3]); 0.0844 ± 0.0086 in the series with Saccharomyces cerevisiae [1] (setting [4]); 0.138 ± 0.0083 in the series on Saccharomyces cerevisiae [1] (setting [5]); 0.225 ± 0.0081 with Saccharomyces cerevisiae [1] (setting [6]); 0.109 ± 0.014 with Saccharomyces cerevisiae [1] (setting [7]); 0.128 ± 0.043 with Saccharomyces cerevisiae [1] (setting [8]). The protein stability index in the series with Saccharomyces cerevisiae [1] (setting [9]) was determined as 0.142 ± 0.018; in the series with Saccharomyces cerevisiae [2], 0.1721 ± 0.0014.

In the case of VFSFGLLFQVCR, the protein stability index is 0.598 ± 0.04 in the series on Saccharomyces cerevisiae [1] (setting [3]); 0.625 ± 0.025 in the series on Saccharomyces cerevisiae [1] (setting [4]); 0.435 ± 0.022 in the series with Saccharomyces cerevisiae [1] (setting [5]); 0.6144 ± 0.0034 in the series on Saccharomyces cerevisiae [1] (setting [6]); 0.4081 ± 0.0038 in the series with Saccharomyces cerevisiae [1] (setting [7]); 0.452 ± 0.025 with Saccharomyces cerevisiae [1] (setting [8]). Further, the protein stability index in the series with Saccharomyces cerevisiae [1] (setting [9]) was found to be 0.631 ± 0.053; in the series on Saccharomyces cerevisiae [2], 0.502 ± 0.019.

As to VFSGVTTILVRT, the protein stability index with Saccharomyces cerevisiae [1] (setting [3]) came out at 0.578 ± 0.05; with Saccharomyces cerevisiae [1] (setting [4]) it was 0.517 ± 0.026; with Saccharomyces cerevisiae [1] (setting [5]), 0.37 ± 0.035; in the series with Saccharomyces cerevisiae [1] (setting [6]), 0.576 ± 0.022; in the series with Saccharomyces cerevisiae [1] (setting [7]), 0.346 ± 0.0089; in the series with Saccharomyces cerevisiae [1] (setting [8]) it was 0.392 ± 0.018. The protein stability index in the series on Saccharomyces cerevisiae [1] (setting [9]) worked out at 0.538 ± 0.0096; in the series on Saccharomyces cerevisiae [2], 0.539 ± 0.11.

As for VFSLFLVLNYPF, the protein stability index was 0.302 ± 0.046 in the series on Saccharomyces cerevisiae [1] (setting [3]); 0.296 ± 0.043 in the series on Saccharomyces cerevisiae [1] (setting [4]); 0.373 ± 0.021 in the series with Saccharomyces cerevisiae [1] (setting [5]); 0.495 ± 0.01 in the series with Saccharomyces cerevisiae [1] (setting [6]); 0.466 ± 0.021 in the series on Saccharomyces cerevisiae [1] (setting [7]); 0.362 ± 0.012 in the series with Saccharomyces cerevisiae [1] (setting [8]). Besides, the protein stability index with Saccharomyces cerevisiae [1] (setting [9]) turned out to be 0.432 ± 0.025; in the series with Saccharomyces cerevisiae [2], 0.446 ± 0.037.

Turning to VGGLGWCWVCMA, the protein stability index in the series with Saccharomyces cerevisiae [1] (setting [3]) was 0.573 ± 0.041; in the series with Saccharomyces cerevisiae [1] (setting [4]), 0.718 ± 0.035; in the series with Saccharomyces cerevisiae [1] (setting [5]) it was 0.595 ± 0.017; in the series with Saccharomyces cerevisiae [1] (setting [6]) it was 0.75 ± 0.013; with Saccharomyces cerevisiae [1] (setting [7]), 0.132 ± 0.01; with Saccharomyces cerevisiae [1] (setting [8]), 0.158 ± 0.023. For the same sequence, the protein stability index in the series with Saccharomyces cerevisiae [1] (setting [9]) came out at 0.246 ± 0.0056; with Saccharomyces cerevisiae [2], 0.25 ± 0.016.

Turning to VGIFKVCALVLR, the protein stability index was 0.325 ± 0.019 in the series with Saccharomyces cerevisiae [1] (setting [3]); 0.296 ± 0.011 in the series on Saccharomyces cerevisiae [1] (setting [4]); 0.324 ± 0.027 in the series with Saccharomyces cerevisiae [1] (setting [5]); 0.4622 ± 0.003 with Saccharomyces cerevisiae [1] (setting [6]); 0.399 ± 0.0062 in the series on Saccharomyces cerevisiae [1] (setting [7]); 0.335 ± 0.016 in the series with Saccharomyces cerevisiae [1] (setting [8]). The results for the protein stability index with Saccharomyces cerevisiae [1] (setting [9]) and with Saccharomyces cerevisiae [2] were 0.446 ± 0.011 and 0.483 ± 0.0098, respectively.
